Series [1] deals with T1, Mit1 C-terminal domain (1156–1417) (S. pombe, UniProt Q9P793 1156-1417).
T1 sequence (looked up): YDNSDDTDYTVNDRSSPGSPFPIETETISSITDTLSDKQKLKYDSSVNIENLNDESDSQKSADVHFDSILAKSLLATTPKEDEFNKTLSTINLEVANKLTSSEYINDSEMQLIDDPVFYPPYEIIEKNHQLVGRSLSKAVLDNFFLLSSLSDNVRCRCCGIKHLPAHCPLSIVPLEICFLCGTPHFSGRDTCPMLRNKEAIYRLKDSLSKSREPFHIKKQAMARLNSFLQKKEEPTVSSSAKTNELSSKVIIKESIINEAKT
Briefly: pull-down.

Series [2] concerns the molecule itself.

B1: Clr1 region between residues 357–500 (domain or fragment, S. pombe, UniProt O74808 357-500, looked up)
chain: PFLTPDNIASSILYSTASFSRSKPDRPRLNLSLELKLMQNELNKGQLKKQFKGDLRNLADWNNLSLVSSKFPSLPITNLRPDGSFLKHRRFNEEIAYNRQTLEKAIKQLDLSPDKVIQLREQNGVAVNGRVCYPTRNKHSEISA
Consider B1, for which, in series [1], the binding result was “binds”.

B2: Clr3 (aa31–687) (enzyme, S. pombe, UniProt P56523 31-687, looked up)
chain: TNNKPMSGSENTLNNESHEMSQILKKSGLCYDPRMRFHATLSEVDDHPEDPRRVLRVFEAIKKAGYVSNVPSPSDVFLRIPAREATLEELLQVHSQEMYDRVTNTEKMSHEDLANLEKISDSLYYNNESAFCARLACGSAIETCTAVVTGQVKNAFAVVRPPGHHAEPHKPGGFCLFNNVSVTARSMLQRFPDKIKRVLIVDWDIHHGNGTQMAFYDDPNVLYVSLHRYENGRFYPGTNYGCAENCGEGPGLGRTVNIPWSCAGMGDGDYIYAFQRVVMPVAYEFDPDLVIVSCGFDAAAGDHIGQFLLTPAAYAHMTQMLMGLADGKVFISLEGGYNLDSISTSALAVAQSLLGIPPGRLHTTYACPQAVATINHVTKIQSQYWRCMRPKHFDANPKDAHVDRLHDVIRTYQAKKLFEDWKITNMPILRDSVSNVFNNQVLCSSNFFQKDNLLVIVHESPRVLGNGTSETNVLNLNDSLLVDPVSLYVEWAMQQDWGLIDINIPEVVTDGENAPVDILSEVKELCLYVWDNYVELSISKNIFFIGGGKAVHGLVNLASSRNVSDRVKCMVNFLGTEPLVGLKTASEEDLPTWYYRHSLVFVSSSNECWKKAKRAKRRYGRLMQSEHTETSDMMEQHYRAVTQYLLHLLQKARPTSQ
In the case of B2, the “stoichiometry N” value in series [2] is 2.

As a reminder, the stoichiometry N is a count of units in the complex or per binding partner.

The record behind these values is PMC4890606 (Molecular cell, 2016).
